Assay [1] has as its target GATA-1^S310A (human) (UniProt P15976).
Assay [2] shares this target. Nature of the assay: co-IP.

Sequence of UniProt P15976 (P15976 whole entry S310A): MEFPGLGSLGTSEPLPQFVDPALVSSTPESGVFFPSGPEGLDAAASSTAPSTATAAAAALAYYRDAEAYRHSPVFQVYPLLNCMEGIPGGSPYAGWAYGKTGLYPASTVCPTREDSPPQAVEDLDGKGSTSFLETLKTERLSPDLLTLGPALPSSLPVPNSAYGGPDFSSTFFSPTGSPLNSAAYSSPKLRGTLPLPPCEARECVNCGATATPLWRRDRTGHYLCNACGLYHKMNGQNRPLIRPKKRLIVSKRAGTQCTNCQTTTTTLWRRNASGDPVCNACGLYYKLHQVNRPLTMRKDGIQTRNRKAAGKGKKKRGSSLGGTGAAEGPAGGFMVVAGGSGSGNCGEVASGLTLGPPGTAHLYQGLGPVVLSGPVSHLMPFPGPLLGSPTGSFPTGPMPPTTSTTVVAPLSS

As for “FOG-1 (mouse), in NIH-3T3 cells (from UniProt O35615 1-995) (natural protein)”, the relative affinity against wild-type GATA-1 (fold less) in the assay with GATA-1^S310A (human) [1] was 25 fold. The rate of binding to FOG-1 with GATA-1^S310A (human) [2] amounted to 62.
